The record followed here is the supplement of paper PMC10567573.

The chains are these.
B1: NETO1 (parent)
chain: KTSLLDQLTNTSGTVIGVTSCIVI
B2: STK38L (parent)
chain: FLPGGDMMTLLMKKDTLTEEETQF
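Also: lentivirally expressed fusions sorted by FACS into six bins by GFP to DsRed ratio, PSI derived from sequencing read proportions per bin multiplied by bin number.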

One series covers variants of B1. The series is described as follows: protein stability index of a GFP-peptide fusion (GPS, HEK-293T) (PSI 1-6); higher = more stable. The note with it: c terminus: a fixed tail appended.
Consider KTSLPDQLTNTSGTVIGVTSCIVI [L5P], for which the protein stability index is 2.45. The same measure, in the same setting: next, KTSLYDQLTNTSGTVIGVTSCIVI [L5Y]: 2.3; KTSLLDQLTNSSGTVIGVTSCIVI [T11S]: 2.15. On the same count and under the same terms, next, KTSLLDQLTNYSGTVIGVTSCIVI [T11Y]: 2.33; KTSLLDQLTNCSGTVIGVTSCIVI [T11C]: 3.13. The same measure, in the same setting: the result for KTSLLDQLTNTSGTVIGVTSLIVI [C21L] reads 3.29; that for KTSLLDQLTNTSGTVIGVTSNIVI [C21N], 3.1. Regarding KTSLLDQLTNTSGTVIGVTSCIVY [I24Y], the protein stability index worked out at 2.55. As to KTSLLDQLTNTSGTVIGVTECIVI [S20E], the protein stability index turned out to be 4.15. On the same count and under the same terms, next, KTSLLDQLTNTSGTVIGVTCCIVI [S20C]: 2.91; KTSLLDQLTNTSGTVIGVTVCIVI [S20V]: 2.44; KTSLLDQLTNTSGTVIGVTFCIVI [S20F]: 2.87. Still for that read-out and setting: next, KTSLLDQLTNTSGTVIGVTWCIVI [S20W]: 3.86; KTSLLDQLTNTSGTVIGVTGCIVI [S20G]: 2.14; KTSTLDQLTNTSGTVIGVTSCIVI [L4T]: 3.56. Still for that read-out and setting: the result for KTSPLDQLTNTSGTVIGVTSCIVI [L4P] reads 2.67; that for KTKLLDQLTNTSGTVIGVTSCIVI [S3K], 2.88; that for KTELLDQLTNTSGTVIGVTSCIVI [S3E], 2.86. As for KTSLLDQLTNTSGIVIGVTSCIVI [T14I], the protein stability index turned out to be 2.98.

With KTSLLDQLTNTSGKVIGVTSCIVI [T14K], the protein stability index stood at 3.88. Regarding KTSLLDQLPNTSGTVIGVTSCIVI [T9P], the protein stability index worked out at 2.6.

In the case of KTSLLDQLLNTSGTVIGVTSCIVI [T9L], the protein stability index was found to be 3.09. Same read-out and setting: the result for KTSLLDQLYNTSGTVIGVTSCIVI [T9Y] reads 3.55; that for KTSLLDQLKNTSGTVIGVTSCIVI [T9K], 3.98; that for PTSLLDQLTNTSGTVIGVTSCIVI [K1P], 3.02. In the case of NTSLLDQLTNTSGTVIGVTSCIVI [K1N], the protein stability index was 2.53. On the same count and under the same terms, next, RTSLLDQLTNTSGTVIGVTSCIVI [K1R]: 1.61; GTSLLDQLTNTSGTVIGVTSCIVI [K1G]: 2.6. Same read-out and setting: next, KTSLLDQLTNTSGTVQGVTSCIVI [I16Q]: 2.94. Same read-out and setting: the result for KTSLLDQLTNTSGTVDGVTSCIVI [I16D] reads 2.52; that for KTSLLDQLTNTSGTVTGVTSCIVI [I16T], 3.23. Turning to KTSLLDQLTNTSGTVNGVTSCIVI [I16N], the protein stability index is 2.27. Same read-out and setting: the result for KTSLLDQLTNTSGTVIGVQSCIVI [T19Q] reads 3.55; that for KTSLLDQLTNTSGTVIGVRSCIVI [T19R], 3.08. Take KTSLLDQLTNTSGTVIGVFSCIVI [T19F]: the protein stability index came out at 2.52.

For KTSLLDQITNTSGTVIGVTSCIVI [L8I], the protein stability index came out at 3.38. Same read-out and setting: the result for KTSLLDQPTNTSGTVIGVTSCIVI [L8P] reads 2.5; that for KTSLLDQNTNTSGTVIGVTSCIVI [L8N], 2.56; that for KTSLLDFLTNTSGTVIGVTSCIVI [Q7F], 2.62. Same read-out and setting: the result for KTSLLDSLTNTSGTVIGVTSCIVI [Q7S] reads 2.36; that for KTSLLFQLTNTSGTVIGVTSCIVI [D6F], 2.58. Same read-out and setting: the result for KTSLLPQLTNTSGTVIGVTSCIVI [D6P] reads 1.82; that for KTSLLDQLTGTSGTVIGVTSCIVI [N10G], 3.19; that for KTSLLDQLTLTSGTVIGVTSCIVI [N10L], 3.8. Consider KTSLLDQLTYTSGTVIGVTSCIVI [N10Y], for which the protein stability index amounted to 2.62. Take KTSLLDQLTNTSGTVIPVTSCIVI [G17P]: the protein stability index is 3.45. Same read-out and setting: next, KTSLLDQLTNTSGTVIAVTSCIVI [G17A]: 2.71; KTSLLDQLTNTSGTVIDVTSCIVI [G17D]: 3.37; KTSLLDQLTNTSGTVIGVTSCPVI [I22P]: 2.37. As to KTSLLDQLTNTSGTVIGVTSCSVI [I22S], the protein stability index is 1.45.

For KTSLLDQLTNTSGTVIGVTSCVVI [I22V], the protein stability index worked out at 3.37. Turning to KTSLLDQLTNTSGTKIGVTSCIVI [V15K], the protein stability index turned out to be 3.5. The same measure, in the same setting: next, KTSLLDQLTNTSGTRIGVTSCIVI [V15R]: 2.45; KTSLLDQLTNTKGTVIGVTSCIVI [S12K]: 2.89; KTSLLDQLTNTSGTVIGWTSCIVI [V18W]: 4.09.

As to KTSLLDQLTNTSGTVIGPTSCIVI [V18P], the protein stability index came to 2.84. Regarding KTSLLDQLTNTSGTVIGQTSCIVI [V18Q], the protein stability index worked out at 2.66.

For the variant KTSLLDQLTNTSGTVIGVTSCINI [V23N], the protein stability index came out at 2.01.

KTSLLDQLTNTSGTVIGVTSCIPI [V23P]: the protein stability index is 1.65. Turning to KPSLLDQLTNTSGTVIGVTSCIVI [T2P], the protein stability index was 3.5. KGSLLDQLTNTSGTVIGVTSCIVI [T2G]: the protein stability index was 3.08. On the same count and under the same terms, next, KKSLLDQLTNTSGTVIGVTSCIVI [T2K]: 2.64. Consider KHSLLDQLTNTSGTVIGVTSCIVI [T2H], for which the protein stability index turned out to be 2.98. Same read-out and setting: next, KFSLLDQLTNTSGTVIGVTSCIVI [T2F]: 3.71; KWSLLDQLTNTSGTVIGVTSCIVI [T2W]: 2.31; KMSLLDQLTNTSGTVIGVTSCIVI [T2M]: 2.76.

The next series covers variants of B2. The series is described as above. The conditions noted are these: c terminus: a fixed tail appended.
Regarding FLWGGDMMTLLMKKDTLTEEETQF [P3W], the protein stability index amounted to 2.55. Same read-out and setting: the result for FLTGGDMMTLLMKKDTLTEEETQF [P3T] reads 2.23; that for FLYGGDMMTLLMKKDTLTEEETQF [P3Y], 1.68; that for FLMGGDMMTLLMKKDTLTEEETQF [P3M], 2.18. Consider FLLGGDMMTLLMKKDTLTEEETQF [P3L], for which the protein stability index was 1.86. As to FLEGGDMMTLLMKKDTLTEEETQF [P3E], the protein stability index stood at 2.32. Regarding FLCGGDMMTLLMKKDTLTEEETQF [P3C], the protein stability index is 2.17. On to FLIGGDMMTLLMKKDTLTEEETQF [P3I], for which the protein stability index worked out at 2.31. Turning to FLVGGDMMTLLMKKDTLTEEETQF [P3V], the protein stability index worked out at 2.08.

Consider FLKGGDMMTLLMKKDTLTEEETQF [P3K], for which the protein stability index turned out to be 2.91. Same read-out and setting: next, FLDGGDMMTLLMKKDTLTEEETQF [P3D]: 2.12; FLQGGDMMTLLMKKDTLTEEETQF [P3Q]: 2.31.

Turning to FLAGGDMMTLLMKKDTLTEEETQF [P3A], the protein stability index amounted to 1.66. The same measure, in the same setting: the result for FLFGGDMMTLLMKKDTLTEEETQF [P3F] reads 2.22; that for FLGGGDMMTLLMKKDTLTEEETQF [P3G], 2.96; that for FLHGGDMMTLLMKKDTLTEEETQF [P3H], 1.98. Same read-out and setting: the result for FLSGGDMMTLLMKKDTLTEEETQF [P3S] reads 1.4; that for FLRGGDMMTLLMKKDTLTEEETQF [P3R], 2.76. On to FLNGGDMMTLLMKKDTLTEEETQF [P3N], for which the protein stability index was 1.89. For the variant FLPGGDIMTLLMKKDTLTEEETQF [M7I], the protein stability index turned out to be 2.08.

FLPGGDAMTLLMKKDTLTEEETQF [M7A]: the protein stability index came to 4.11.

On to FLPGGDLMTLLMKKDTLTEEETQF [M7L], for which the protein stability index amounted to 2.43.

FLPGGDNMTLLMKKDTLTEEETQF [M7N]: the protein stability index worked out at 3.05. On to FLPGGDFMTLLMKKDTLTEEETQF [M7F], for which the protein stability index worked out at 2.23. Same read-out and setting: next, FLPGGDKMTLLMKKDTLTEEETQF [M7K]: 3.55; FLPGGDDMTLLMKKDTLTEEETQF [M7D]: 4.85. For FLPGGDGMTLLMKKDTLTEEETQF [M7G], the protein stability index turned out to be 3.16. As to FLPGGDCMTLLMKKDTLTEEETQF [M7C], the protein stability index was determined as 2.63.
